In article PMC6713497:

Experiments:
[1] = target: AxqNOR Val495Ala-BRIL (Alcaligenes xylosoxidans); experiment: cryo-EM structure; single-particle cryo-EM of detergent-solubilised qNOR-BRIL (50 mM tris, 150 mM NaCl, 0.05% DTM; wild type pH 7.0 at 3 mg/ml, Val495Ala pH 7.5 at 5 mg/ml), C2 symmetry imposed
[2] = target: qNOR from Neisseria meningitidis (NmqNOR), wild type (Neisseria meningitidis); experiment: cryo-EM structure; cryo-EM dataset of wild-type NmqNOR, 9 Å reconstruction (fig. S1); conditions not given

stoichiometry N [2]	Substance	stoichiometry N [1]
	AxqNOR Val495Ala-BRIL (enzyme)	2
2	qNOR from Neisseria meningitidis (NmqNOR), wild type (enzyme)	
